# Measured values reported in patent publication US11078465B2, “Alcohol dehydrogenase mutant and application thereof in synthesis of diaryl chiral alcohols” (Jiangnan University, priority 2018, dated 2021).
# Changes are numbered by the printed parent chain. Names and notes keep the numbering of the source.
# B1: E214I/S237A: isoleucine for glutamate at position 214 and alanine for serine at position 237 of SEQ ID No. 2 (protein)
# chain: MSVLISGASGYIAKHIVRVLLEQNYKVIGTVRSQDKADKLLKQYNNPNLSYEIVPEIANLDAFDDIFKKHGKEIKYVIHAASPVNFGAKDLEKDLVIPAINGTKNMFEAIKKYAPDTVERVVMTASYASIMTPHRQNDPTLTLDEETWNPVTEENAYENVFTAYCASKTFAEKEAWKFVKENSDAVKFKLTTIHPSFVFGPQNFDEDVTKKLNITCEIINGLLHAPFDTKVEKTHFAQFIDVRDVAKTHVLGFQKDELINQRLLLCNGAFSQQDIVNVFNEDFPELKGQFPPEDKDTDLNKGVTGCKIDNEKTKKLLAFEFTPFHKTIHDTVYQILHKEGRV
# modifications: Protein translated from synthetic DNA
# B2: E214Y/S237A: tyrosine for glutamate at position 214 and alanine for serine at position 237 of SEQ ID No. 2 (protein)
# chain: B1 chain with I214Y
# modifications: Protein translated from synthetic DNA
# Assays:
# Assay type in all cases: biochemical
# [1] = Stereoselectivity on different substrates; conditions: for Stereoselectivity (ee): configuration in brackets
# How it was run: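 Alcohol dehydrogenase mutants reduced prochiral ketones, including CPMK, aryl pyridyl and diaryl ketones, acetophenones and keto esters. Reactions were extracted into ethyl acetate and redissolved in ethanol. Conversion and ee were determined by chiral liquid and gas chromatography, with ee calculated from (S)- and (R)-CPMA molar concentrations.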
# [2] = Stereoselectivity on different substrates; conditions: configuration in brackets
# How it was run: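 Reaction mixture extracted with ethyl acetate, dried organic phase redissolved in ethanol, then analysed by chiral liquid chromatography and gas chromatography. Values are transformation rate and ee, with ee from LC molar concentrations of (S)- and (R)-CPMA. Substrates were prochiral ketones reduced by alcohol dehydrogenase mutants.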
# [3] = Asymmetric reduction in 20 mL biocatalytic system, conversion
# [4] = Substrate specificity, specific activity
# How it was run: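 Alcohol dehydrogenase mutants were assayed with 1.0 mM NADPH and 1.0 mM ketone substrate (CPMK or other prochiral carbonyls) in 100 mM sodium phosphate, pH 7.0, at 30° C. NADPH oxidation was followed at 340 nm; one U oxidizes 1 μmol NADPH per min (ε 6220).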
# [5] = Stereoselectivity (ee) of CPMK reduction, chiral liquid chromatography; conditions: for e.e.: product configuration in brackets
# How it was run: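 ee is calculated from the (S)-CPMA and (R)-CPMA molar concentrations measured by chiral liquid chromatography; conversion also by GC. Samples are ethyl acetate extracts of the reaction, dried and redissolved in ethanol.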
# [6] = Kinetic analysis of alcohol dehydrogenase and mutants (NADPH oxidation, 340 nm, double reciprocal curve); conditions: substrate CPMK
# How it was run: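 His-tagged recombinant KpADH (wild type or mutant) purified by nickel affinity, desalted into Tris-HCl pH 7.0. Activity measured at 30° C in 100 mM sodium phosphate pH 7.0 with 1.0 mM NADPH and 1.0 mM CPMK by 340 nm NADPH absorbance decrease; kinetic parameters from double reciprocal plots over varied substrate and coenzyme concentrations.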
# [7] = substrate [drawing 10], acetophenone
# [8] = substrate [drawing 11], 4-chloroacetophenone
# [9] = substrate [drawing 12], 4-chlorobenzoyl chloride
# [10] = substrate [drawing 16], (4-bromophenyl)-(phenyl)-methanone
# [11] = substrate [drawing 17], p-nitrobenzophenone
# [12] = substrate [drawing 14], likely CPMK (values partly match Table 4)
# [13] = substrate [drawing 6], 4-chlorophenacyl chloride
# [14] = substrate [drawing 9], ethyl 4-chloro-3-oxobutanoate
molecule,measurement,setting,value
B1,ee,"[1]; substrate 4-chloroacetophenone, (R)",99.4%
same,Stereoselectivity (ee),[1]; [7],9.69 (R)
same,Stereoselectivity (ee),[1]; [8],99.4 (R)
same,Stereoselectivity (ee),[1]; [9],76.4 (R)
same,Stereoselectivity (ee),[1]; [10],93.4 (S)
same,Stereoselectivity (ee),[1]; [11],86.5 (S)
same,Stereoselectivity (ee),[2]; substrate [drawing 13],36.8 (R)
same,Stereoselectivity (ee),[2]; [12],98.4 (R)
same,Stereoselectivity (ee),[2]; substrate [drawing 15],52.6 (S)
same,Stereoselectivity (ee),[2]; substrate [drawing 18],81.8 (S)
same,Conversion rate,"[3]; 4-chloroacetophenone 100 mM, 1 h",59%
same,Conversion rate,"[3]; 4-chloroacetophenone 100 mM, 2 h",72%
same,Conversion rate,"[3]; 4-chloroacetophenone 100 mM, 3 h",89%
same,Conversion rate,"[3]; 4-chloroacetophenone 100 mM, 4 h",85%
same,Conversion rate,"[3]; 4-chloroacetophenone 100 mM, 6 h",97.6%
same,Conversion rate,"[3]; 4-chloroacetophenone 100 mM, 8 h",99.8%
same,Conversion rate,"[3]; 4-chloroacetophenone 100 mM, 12 h",>99.9%
same,Conversion rate,"[3]; 4-chloroacetophenone 100 mM, 24 h",>99.9%
same,Conversion rate,"[3]; 4-chloroacetophenone 200 mM, 1 h",40%
same,Conversion rate,"[3]; 4-chloroacetophenone 200 mM, 2 h",52.4%
same,Conversion rate,"[3]; 4-chloroacetophenone 200 mM, 3 h",69.5%
same,Conversion rate,"[3]; 4-chloroacetophenone 200 mM, 4 h",76.9%
same,Conversion rate,"[3]; 4-chloroacetophenone 200 mM, 6 h",88.6%
same,Conversion rate,"[3]; 4-chloroacetophenone 200 mM, 8 h",95.6%
same,Conversion rate,"[3]; 4-chloroacetophenone 200 mM, 12 h",99.2%
same,Conversion rate,"[3]; 4-chloroacetophenone 200 mM, 24 h",99.7%
same,Conversion rate,"[3]; 4-chloroacetophenone 500 mM, 1 h",28.5%
same,Conversion rate,"[3]; 4-chloroacetophenone 500 mM, 2 h",38.9%
same,Conversion rate,"[3]; 4-chloroacetophenone 500 mM, 3 h",50.0%
same,Conversion rate,"[3]; 4-chloroacetophenone 500 mM, 4 h",64.2%
same,Conversion rate,"[3]; 4-chloroacetophenone 500 mM, 6 h",80.9%
same,Conversion rate,"[3]; 4-chloroacetophenone 500 mM, 8 h",90.2%
same,Conversion rate,"[3]; 4-chloroacetophenone 500 mM, 12 h",94.9%
same,Conversion rate,"[3]; 4-chloroacetophenone 500 mM, 24 h",99.2%
same,specific activity,[4]; substrate [drawing 1],0.09 U/mg
same,specific activity,[4]; substrate [drawing 2],0.08 U/mg
same,specific activity,[4]; substrate [drawing 3],1.42 U/mg
same,specific activity,[4]; substrate [drawing 4],2.94 U/mg
same,specific activity,[4]; substrate [drawing 5],12.38 U/mg
same,specific activity,[4]; [13],30.09 U/mg
same,specific activity,[4]; substrate [drawing 7],21.73 U/mg
same,specific activity,[4]; substrate [drawing 8],30.28 U/mg
same,specific activity,[4]; [14],5.58 U/mg
same,"ee value, (R)-CPMA","[5]; R configuration product, listed as E2141/S237A",98.3%
same,e.e.,[5],98.3 (R)
same,Kcat,[6],12.06 ± 0.52 s⁻¹
same,Km,[6],470 ± 50 µM
same,Vmax,[6],18.09 ± 0.78 µM/min/mg
B2,Stereoselectivity (ee),[1]; [7],32.1 (R)
same,Stereoselectivity (ee),[1]; [8],97.9 (R)
same,Stereoselectivity (ee),[1]; [9],61.6 (R)
same,Stereoselectivity (ee),[1]; [10],98.5 (S)
same,Stereoselectivity (ee),[1]; [11],99.2 (S)
same,Stereoselectivity (ee),[2]; substrate [drawing 13],18.2 (R)
same,Stereoselectivity (ee),[2]; [12],99.1 (R)
same,Stereoselectivity (ee),[2]; substrate [drawing 15],89.3 (S)
same,Stereoselectivity (ee),[2]; substrate [drawing 18],79.3 (S)
same,Conversion rate,"[3]; 4-nitroacetophenone 10 mM, 1 h",32%
same,Conversion rate,"[3]; 4-nitroacetophenone 10 mM, 2 h",48%
same,Conversion rate,"[3]; 4-nitroacetophenone 10 mM, 3 h",60%
same,Conversion rate,"[3]; 4-nitroacetophenone 10 mM, 4 h",85%
same,Conversion rate,"[3]; 4-nitroacetophenone 10 mM, 6 h",95%
same,Conversion rate,"[3]; 4-nitroacetophenone 10 mM, 8 h",99.8%
same,Conversion rate,"[3]; 4-nitroacetophenone 10 mM, 12 h",>99.9%
same,Conversion rate,"[3]; 4-nitroacetophenone 10 mM, 24 h",>99.9%
same,Conversion rate,"[3]; 4-nitroacetophenone 20 mM, 1 h",22%
same,Conversion rate,"[3]; 4-nitroacetophenone 20 mM, 2 h",35.5%
same,Conversion rate,"[3]; 4-nitroacetophenone 20 mM, 3 h",55.8%
same,Conversion rate,"[3]; 4-nitroacetophenone 20 mM, 4 h",69.5%
same,Conversion rate,"[3]; 4-nitroacetophenone 20 mM, 6 h",90.4%
same,Conversion rate,"[3]; 4-nitroacetophenone 20 mM, 8 h",95.6%
same,Conversion rate,"[3]; 4-nitroacetophenone 20 mM, 12 h",99.2%
same,Conversion rate,"[3]; 4-nitroacetophenone 20 mM, 24 h",99.5%
same,Conversion rate,"[3]; 4-nitroacetophenone 50 mM, 1 h",10.5%
same,Conversion rate,"[3]; 4-nitroacetophenone 50 mM, 2 h",22.5%
same,Conversion rate,"[3]; 4-nitroacetophenone 50 mM, 3 h",35.9%
same,Conversion rate,"[3]; 4-nitroacetophenone 50 mM, 4 h",49.5%
same,Conversion rate,"[3]; 4-nitroacetophenone 50 mM, 6 h",60.9%
same,Conversion rate,"[3]; 4-nitroacetophenone 50 mM, 8 h",82.6%
same,Conversion rate,"[3]; 4-nitroacetophenone 50 mM, 12 h",85.5%
same,Conversion rate,"[3]; 4-nitroacetophenone 50 mM, 24 h",86.5%
same,ee in asymmetric synthesis of (R)-CPMA,"[3]; 20 mL biocatalytic system, 30° C., pH 7.5",99.1%
same,Conversion rate,"[3]; CPMK 100 mM, 1 h",66%
same,Conversion rate,"[3]; CPMK 100 mM, 2 h",80%
same,Conversion rate,"[3]; CPMK 100 mM, 3 h",89.5%
same,Conversion rate,"[3]; CPMK 100 mM, 4 h",94%
same,Conversion rate,"[3]; CPMK 100 mM, 6 h",96.6%
same,Conversion rate,"[3]; CPMK 100 mM, 8 h",99.5%
same,Conversion rate,"[3]; CPMK 100 mM, 12 h",>99.9%
same,Conversion rate,"[3]; CPMK 100 mM, 24 h",>99.9%
same,Conversion rate,"[3]; CPMK 200 mM, 1 h",45.5%
same,Conversion rate,"[3]; CPMK 200 mM, 2 h",65.5%
same,Conversion rate,"[3]; CPMK 200 mM, 3 h",75.9%
same,Conversion rate,"[3]; CPMK 200 mM, 4 h",88.8%
same,Conversion rate,"[3]; CPMK 200 mM, 6 h",95.6%
same,Conversion rate,"[3]; CPMK 200 mM, 8 h",99.1%
same,Conversion rate,"[3]; CPMK 200 mM, 12 h",99.7%
same,Conversion rate,"[3]; CPMK 200 mM, 24 h",>99.9%
same,Conversion rate,"[3]; CPMK 500 mM, 1 h",25.5%
same,Conversion rate,"[3]; CPMK 500 mM, 2 h",33.5%
same,Conversion rate,"[3]; CPMK 500 mM, 3 h",45.8%
same,Conversion rate,"[3]; CPMK 500 mM, 4 h",59.9%
same,Conversion rate,"[3]; CPMK 500 mM, 6 h",77.9%
same,Conversion rate,"[3]; CPMK 500 mM, 8 h",90.2%
same,Conversion rate,"[3]; CPMK 500 mM, 12 h",95.7%
same,Conversion rate,"[3]; CPMK 500 mM, 24 h",99.5%
same,substrate concentration that could be afforded,[3]; p-nitrobenzophenone,20 mM
same,specific activity,[4]; substrate [drawing 1],0.26 U/mg
same,specific activity,[4]; substrate [drawing 2],0.25 U/mg
same,specific activity,[4]; substrate [drawing 3],2.25 U/mg
same,specific activity,[4]; substrate [drawing 4],4.06 U/mg
same,specific activity,[4]; substrate [drawing 5],14.48 U/mg
same,specific activity,[4]; [13],25.70 U/mg
same,specific activity,[4]; substrate [drawing 7],22.02 U/mg
same,specific activity,[4]; substrate [drawing 8],22.61 U/mg
same,specific activity,[4]; [14],7.74 U/mg
same,e.e.,[5],99.1 (R)
same,Kcat,[6],15.80 ± 0.25 s⁻¹
same,Km,[6],620 ± 20 µM
same,Vmax,[6],23.70 ± 0.37 µM/min/mg
